Here are results for one molecule from paper PMC4822050, “Hemi-methylated DNA opens a closed conformation of UHRF1 to facilitate its histone recognition” (Nature Communications, 2016).

Residue numbers refer to the chain shown, from its start.

What all share (assay): ITC; 0.05 mM protein in the cell, 0.5 mM protein or peptide in the syringe, iTC200, 18 °C, 10 mM HEPES pH 8.0, 100 mM NaCl
What all share (conditions): both partners purified
Background: Isothermal titration calorimetry measures the heat released or taken up as one component is titrated into another.

The target in experiment [1] is T1, R295D/R296D mutant of full-length UHRF1 (human, UniProt Q96T88 1-793, R295D | R296D).
T1 construct: human UHRF1 (1–793)
T1 sequence (looked up): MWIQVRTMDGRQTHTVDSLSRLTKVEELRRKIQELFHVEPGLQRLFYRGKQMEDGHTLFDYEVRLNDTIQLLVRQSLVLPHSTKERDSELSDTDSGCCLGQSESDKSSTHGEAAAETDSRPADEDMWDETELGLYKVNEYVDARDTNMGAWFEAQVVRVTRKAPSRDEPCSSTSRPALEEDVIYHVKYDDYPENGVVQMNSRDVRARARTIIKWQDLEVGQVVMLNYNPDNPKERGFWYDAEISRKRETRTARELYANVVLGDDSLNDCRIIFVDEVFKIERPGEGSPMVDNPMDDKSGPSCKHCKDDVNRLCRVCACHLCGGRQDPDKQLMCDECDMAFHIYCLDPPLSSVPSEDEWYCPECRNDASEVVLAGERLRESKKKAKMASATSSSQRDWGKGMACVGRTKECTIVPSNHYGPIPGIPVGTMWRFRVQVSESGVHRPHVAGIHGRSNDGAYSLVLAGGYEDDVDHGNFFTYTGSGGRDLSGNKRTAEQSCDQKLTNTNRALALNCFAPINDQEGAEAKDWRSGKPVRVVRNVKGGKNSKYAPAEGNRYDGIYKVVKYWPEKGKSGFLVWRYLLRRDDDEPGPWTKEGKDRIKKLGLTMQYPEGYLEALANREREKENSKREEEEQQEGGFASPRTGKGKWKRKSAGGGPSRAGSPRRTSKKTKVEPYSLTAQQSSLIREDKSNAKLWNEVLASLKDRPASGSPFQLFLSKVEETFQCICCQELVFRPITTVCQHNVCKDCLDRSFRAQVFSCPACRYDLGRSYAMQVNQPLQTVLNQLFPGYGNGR

For a further experiment, the target named is T2, UHRF1^D334A&Δ627–674 (human, UniProt Q96T88 1-793, D334A | Δ627–674).
T2 construct: human UHRF1 (1–793)
T2 sequence (looked up): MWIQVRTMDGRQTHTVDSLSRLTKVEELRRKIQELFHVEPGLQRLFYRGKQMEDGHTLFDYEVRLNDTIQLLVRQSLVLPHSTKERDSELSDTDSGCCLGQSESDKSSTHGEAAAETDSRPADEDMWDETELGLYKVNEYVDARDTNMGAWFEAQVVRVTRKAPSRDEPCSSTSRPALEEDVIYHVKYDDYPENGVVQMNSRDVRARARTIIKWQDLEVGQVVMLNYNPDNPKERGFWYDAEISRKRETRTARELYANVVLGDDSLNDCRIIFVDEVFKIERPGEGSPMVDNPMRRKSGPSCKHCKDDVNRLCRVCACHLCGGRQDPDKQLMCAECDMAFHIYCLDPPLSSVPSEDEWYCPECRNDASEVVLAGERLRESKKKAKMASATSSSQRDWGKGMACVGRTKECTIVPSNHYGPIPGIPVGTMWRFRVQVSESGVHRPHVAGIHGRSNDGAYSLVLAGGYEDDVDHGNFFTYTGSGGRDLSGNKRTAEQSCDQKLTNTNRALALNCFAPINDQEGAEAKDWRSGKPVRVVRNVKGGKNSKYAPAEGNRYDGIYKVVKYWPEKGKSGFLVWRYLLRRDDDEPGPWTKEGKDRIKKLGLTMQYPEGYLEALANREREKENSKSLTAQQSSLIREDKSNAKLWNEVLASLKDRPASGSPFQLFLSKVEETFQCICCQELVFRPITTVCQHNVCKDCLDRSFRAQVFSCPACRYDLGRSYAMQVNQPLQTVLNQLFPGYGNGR

The target in experiment [2] is T3, full-length UHRF1 (residues 1–793) (human, UniProt Q96T88 1-793).
T3 construct: human UHRF1, residues 1–793; monomer by gel filtration; also called wild-type UHRF1; ICBP90
T3 sequence (looked up): T1 sequence (looked up) with D295R, D296R

Regarding ARTKQTARKSTGGKAPR (peptide, UniProt P68431 2-18, looked up, trimethyl-lysine at K9, histone H3, residues 1–17) [H3K9me3 peptide (1–17)], in experiment [1], the “fold lower binding affinity than wild type” value was 8 fold. The Kd (as a rule, the equilibrium constant for the complex coming apart) stood at 8.69 µM with UHRF1^D334A&Δ627–674 and 4.61 µM in experiment [2].
